Target: MPP8 (M-phase phosphoprotein 8) (UniProt Q99549)
Test: cross-linking; photo-crosslinking under UV-B irradiation of recombinant reader (3 or 10 uM CBX1, 5 uM BPTF, 3 uM MPP8) with sulfonium peptide (100 uM or various concentrations), 3 to 20 min; conjugates quantified by HR-MS

Chain of MPP8 (M-phase phosphoprotein 8) (Q99549 whole entry): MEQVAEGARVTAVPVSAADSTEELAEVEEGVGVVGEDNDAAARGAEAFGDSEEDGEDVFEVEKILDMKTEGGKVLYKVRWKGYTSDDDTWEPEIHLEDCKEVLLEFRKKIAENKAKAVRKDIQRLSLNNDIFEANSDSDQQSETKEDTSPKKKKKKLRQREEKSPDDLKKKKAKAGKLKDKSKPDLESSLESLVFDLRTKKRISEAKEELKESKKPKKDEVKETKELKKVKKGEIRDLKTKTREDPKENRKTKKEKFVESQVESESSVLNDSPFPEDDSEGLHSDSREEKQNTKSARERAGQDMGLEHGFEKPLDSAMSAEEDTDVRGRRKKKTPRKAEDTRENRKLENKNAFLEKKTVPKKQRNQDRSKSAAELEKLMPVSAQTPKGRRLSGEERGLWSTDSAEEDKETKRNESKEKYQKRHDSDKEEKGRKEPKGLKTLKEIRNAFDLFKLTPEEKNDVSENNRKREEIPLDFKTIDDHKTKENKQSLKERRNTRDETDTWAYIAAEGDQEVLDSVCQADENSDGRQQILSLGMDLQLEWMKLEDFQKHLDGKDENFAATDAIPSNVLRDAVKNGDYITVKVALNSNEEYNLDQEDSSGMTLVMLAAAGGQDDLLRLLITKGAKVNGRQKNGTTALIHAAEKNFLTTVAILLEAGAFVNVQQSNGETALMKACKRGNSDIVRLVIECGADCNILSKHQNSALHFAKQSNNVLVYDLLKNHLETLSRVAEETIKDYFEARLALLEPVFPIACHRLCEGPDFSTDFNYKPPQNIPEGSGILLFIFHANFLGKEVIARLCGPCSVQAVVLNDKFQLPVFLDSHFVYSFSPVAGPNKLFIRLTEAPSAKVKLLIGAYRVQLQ

fold increase of the peptidyl conjugate yield against H3K9NleS+me2: > 3 fold
Substance: H3K9NleCTMS peptide (histone H3 peptide, cysteine at position 9 alkylated to cyclic tetramethylene sulfonium)
